Values of other authors, collected in article PMC6236854 (Molecular Imaging, 2018).
Ends that are not written are not given here.

Experiments:
GHSR1a = conditions: read-out: half-maximal inhibitory concentration (IC50), binding affinity
[1] = not given; remark: listed apart in the source

## ghrelin (GSSFLSPEHQRVQQRKESKKPPAKLQPR; ends and bridges not checked; UniProt Q9UBU3 24-51, looked up) [human ghrelin]
GHSR1a
  IC50: 7.63 nM
other
  in vitro half-life in human serum: 4 h
[1]
  in vitro half-life in rat serum: 0.5 h
